T1: TX1BP3, O14907
T1 sequence (O14907 10-122, limits assumed, looked up): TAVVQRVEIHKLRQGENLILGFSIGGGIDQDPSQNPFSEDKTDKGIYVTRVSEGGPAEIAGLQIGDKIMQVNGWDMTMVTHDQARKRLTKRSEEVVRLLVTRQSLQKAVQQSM

T2: APBA2_2, Q99767
T2 sequence (Q99767 654-744, limits assumed, looked up): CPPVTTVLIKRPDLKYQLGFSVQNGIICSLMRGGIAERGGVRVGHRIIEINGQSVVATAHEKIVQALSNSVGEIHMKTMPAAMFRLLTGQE

T3: MPDZ_10, O75970
T3 sequence (O75970 1624-1722, limits assumed, looked up): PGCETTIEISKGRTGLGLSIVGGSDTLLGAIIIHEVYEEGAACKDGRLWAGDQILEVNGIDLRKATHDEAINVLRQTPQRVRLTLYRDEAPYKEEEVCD

T4: GRIP1_7, Q9Y3R0
T4 sequence (Q9Y3R0 999-1096, limits assumed, looked up): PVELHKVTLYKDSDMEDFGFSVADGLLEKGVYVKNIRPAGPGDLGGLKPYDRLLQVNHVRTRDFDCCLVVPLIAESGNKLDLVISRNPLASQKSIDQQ

T5: HTRA4, P83105
T5 sequence (P83105 378-476, limits assumed, looked up): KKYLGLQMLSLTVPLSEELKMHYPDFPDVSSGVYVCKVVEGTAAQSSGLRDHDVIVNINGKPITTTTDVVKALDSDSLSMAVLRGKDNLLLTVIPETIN

T6: PCLO, Q9Y6V0
T6 sequence (Q9Y6V0 4491-4600, limits assumed, looked up): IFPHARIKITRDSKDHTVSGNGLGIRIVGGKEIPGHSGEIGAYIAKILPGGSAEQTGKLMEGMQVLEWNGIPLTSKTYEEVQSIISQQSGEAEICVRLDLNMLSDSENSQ

T7: LIN7A, O14910
T7 sequence (O14910 103-200, limits assumed, looked up): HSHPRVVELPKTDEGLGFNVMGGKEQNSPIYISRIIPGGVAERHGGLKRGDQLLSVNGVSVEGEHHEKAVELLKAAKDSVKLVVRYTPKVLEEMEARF

T8: MPP2, Q14168
T8 sequence (Q14168 180-250, limits assumed, looked up): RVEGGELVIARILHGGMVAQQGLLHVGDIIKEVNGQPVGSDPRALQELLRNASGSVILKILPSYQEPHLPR

T9: RADIL, Q96JH8
T9 sequence (Q96JH8 971-1071, limits assumed, looked up): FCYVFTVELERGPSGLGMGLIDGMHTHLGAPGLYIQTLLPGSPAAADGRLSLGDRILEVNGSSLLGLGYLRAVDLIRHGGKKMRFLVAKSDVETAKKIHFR

T10: LNX2_2, Q8N448
T10 sequence (Q8N448 334-432, limits assumed, looked up): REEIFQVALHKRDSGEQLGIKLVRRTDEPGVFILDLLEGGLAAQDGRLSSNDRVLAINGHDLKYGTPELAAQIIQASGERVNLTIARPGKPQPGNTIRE

T11: NHERF3_4, Q5T2W1
T11 sequence (Q5T2W1 373-468, limits assumed, looked up): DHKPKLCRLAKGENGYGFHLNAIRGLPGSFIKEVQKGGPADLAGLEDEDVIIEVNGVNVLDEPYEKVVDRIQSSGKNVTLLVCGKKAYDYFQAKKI

T12: DFNB31_2, Q9P202
T12 sequence (Q9P202 274-371, limits assumed, looked up): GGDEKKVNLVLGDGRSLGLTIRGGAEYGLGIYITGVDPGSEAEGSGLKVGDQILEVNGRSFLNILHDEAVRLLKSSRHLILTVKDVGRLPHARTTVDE


Columns and labels:
Test in all cases: holdup assay
Parameters in all cases: key: below the threshold = too weak to quantify, mostly under pKd 3.1 to 4
Details in all cases: plain residues with an end cap or a label only (N-terminal biotin on a linker: ado-ado)
TX1BP3, O14907 = target: T1, TX1BP3, O14907
MAGI1_2, Q96QZ7 = target: MAGI1_2, Q96QZ7
Sequence of MAGI1_2, Q96QZ7 (Q96QZ7 456-580): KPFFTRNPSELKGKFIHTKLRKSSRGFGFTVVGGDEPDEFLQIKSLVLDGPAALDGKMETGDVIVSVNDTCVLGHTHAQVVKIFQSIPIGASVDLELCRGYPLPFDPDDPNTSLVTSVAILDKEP

APBA2_2, Q99767 = target: T2, APBA2_2, Q99767
ARHGEF12, Q9NZN5-2 = target: ARHGEF12, Q9NZN5-2
Sequence of ARHGEF12, Q9NZN5-2 (Q9NZN5 other isoform, or with tags, fused parts or gaps): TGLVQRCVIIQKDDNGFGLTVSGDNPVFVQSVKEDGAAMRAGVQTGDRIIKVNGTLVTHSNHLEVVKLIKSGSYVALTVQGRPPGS

MAGI3_2, Q5TCQ9 = target: MAGI3_2, Q5TCQ9
Sequence of MAGI3_2, Q5TCQ9 (Q5TCQ9 398-503): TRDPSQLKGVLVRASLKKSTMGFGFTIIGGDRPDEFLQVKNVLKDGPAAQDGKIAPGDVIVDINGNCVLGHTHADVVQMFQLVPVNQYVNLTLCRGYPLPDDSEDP

Inadl_10, Q8NI35 = target: Inadl_10, Q8NI35
Sequence of Inadl_10, Q8NI35 (Q8NI35 1673-1763): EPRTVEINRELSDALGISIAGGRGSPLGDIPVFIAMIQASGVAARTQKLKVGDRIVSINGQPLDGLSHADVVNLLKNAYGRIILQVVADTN

MPDZ_10, O75970 = target: T3, MPDZ_10, O75970
GRIP1_7, Q9Y3R0 = target: T4, GRIP1_7, Q9Y3R0
TJP1_2, Q07157 = target: TJP1_2, Q07157
Sequence of TJP1_2, Q07157 (Q07157 181-274): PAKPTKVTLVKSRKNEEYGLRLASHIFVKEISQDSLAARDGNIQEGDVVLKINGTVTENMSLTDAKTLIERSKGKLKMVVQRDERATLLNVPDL

HTRA4, P83105 = target: T5, HTRA4, P83105
FRMPD2_2, Q68DX3 = target: FRMPD2_2, Q68DX3
Sequence of FRMPD2_2, Q68DX3 (Q68DX3 944-1038): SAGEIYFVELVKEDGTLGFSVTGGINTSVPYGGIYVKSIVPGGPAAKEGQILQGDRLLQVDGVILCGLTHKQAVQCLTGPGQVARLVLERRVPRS

Inadl_9, Q8NI35 = target: Inadl_9, Q8NI35
Sequence of Inadl_9, Q8NI35 (Q8NI35 1530-1615): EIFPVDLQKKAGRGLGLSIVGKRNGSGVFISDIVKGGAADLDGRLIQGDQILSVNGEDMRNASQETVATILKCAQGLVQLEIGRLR

FRMPD2_3, Q68DX3 = target: FRMPD2_3, Q68DX3
Sequence of FRMPD2_3, Q68DX3 (Q68DX3 1073-1166): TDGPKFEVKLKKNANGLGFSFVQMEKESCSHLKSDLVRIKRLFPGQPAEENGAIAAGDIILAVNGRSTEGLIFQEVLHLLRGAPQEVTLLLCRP

PCLO, Q9Y6V0 = target: T6, PCLO, Q9Y6V0
LNX1_3, Q8TBB1 = target: LNX1_3, Q8TBB1
Sequence of LNX1_3, Q8TBB1 (Q8TBB1 500-596): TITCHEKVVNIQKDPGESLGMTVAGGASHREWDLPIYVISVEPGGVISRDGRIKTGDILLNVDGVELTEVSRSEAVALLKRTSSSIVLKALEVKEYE

LIN7A, O14910 = target: T7, LIN7A, O14910
IL16_3, Q14005 = target: IL16_3, Q14005
Sequence of IL16_3, Q14005 (Q14005 1107-1207): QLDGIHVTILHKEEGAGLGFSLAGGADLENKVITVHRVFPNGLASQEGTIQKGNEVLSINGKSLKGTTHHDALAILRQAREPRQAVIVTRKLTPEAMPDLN

MPP2, Q14168 = target: T8, MPP2, Q14168
RADIL, Q96JH8 = target: T9, RADIL, Q96JH8
Inadl_8, Q8NI35 = target: Inadl_8, Q8NI35
Sequence of Inadl_8, Q8NI35 (Q8NI35 1425-1530): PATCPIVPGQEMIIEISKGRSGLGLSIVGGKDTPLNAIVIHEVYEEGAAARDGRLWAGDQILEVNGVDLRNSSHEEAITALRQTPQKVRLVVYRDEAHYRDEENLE

MAGI1_1, Q96QZ7 = target: MAGI1_1, Q96QZ7
Sequence of MAGI1_1, Q96QZ7 (Q96QZ7 1-106): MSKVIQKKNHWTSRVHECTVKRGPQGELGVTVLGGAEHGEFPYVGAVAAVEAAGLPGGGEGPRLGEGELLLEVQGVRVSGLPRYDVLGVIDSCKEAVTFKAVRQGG

LNX2_2, Q8N448 = target: T10, LNX2_2, Q8N448
TJP2_1, Q9UDY2 = target: TJP2_1, Q9UDY2
Sequence of TJP2_1, Q9UDY2 (Q9UDY2 24-128): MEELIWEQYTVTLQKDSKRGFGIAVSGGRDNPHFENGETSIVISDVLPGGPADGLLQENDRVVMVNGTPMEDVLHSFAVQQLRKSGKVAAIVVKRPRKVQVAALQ

NHERF3_4, Q5T2W1 = target: T11, NHERF3_4, Q5T2W1
Inadl_5, Q8NI35 = target: Inadl_5, Q8NI35
Sequence of Inadl_5, Q8NI35 (Q8NI35 673-780): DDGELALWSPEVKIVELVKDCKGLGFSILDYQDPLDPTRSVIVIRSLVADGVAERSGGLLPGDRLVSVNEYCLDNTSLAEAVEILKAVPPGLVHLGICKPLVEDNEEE

DFNB31_2, Q9P202 = target: T12, DFNB31_2, Q9P202

pKd (TX1BP3, O14907)	pKd (MAGI1_2, Q96QZ7)	pKd (APBA2_2, Q99767)	pKd (ARHGEF12, Q9NZN5-2)	pKd (MAGI3_2, Q5TCQ9)	pKd (Inadl_10, Q8NI35)	pKd (MPDZ_10, O75970)	pKd (GRIP1_7, Q9Y3R0)	pKd (TJP1_2, Q07157)	pKd (HTRA4, P83105)	pKd (FRMPD2_2, Q68DX3)	pKd (Inadl_9, Q8NI35)	pKd (FRMPD2_3, Q68DX3)	pKd (PCLO, Q9Y6V0)	pKd (LNX1_3, Q8TBB1)	pKd (LIN7A, O14910)	pKd (IL16_3, Q14005)	pKd (MPP2, Q14168)	pKd (RADIL, Q96JH8)	pKd (Inadl_8, Q8NI35)	Binder	further results
4.12	3.63	below the threshold	4.68	4.09	below the threshold	below the threshold	below the threshold	below the threshold	below the threshold	below the threshold	below the threshold	below the threshold	below the threshold	below the threshold	below the threshold	below the threshold	below the threshold	below the threshold	below the threshold	SRPHTNETSL [MCC, P23508]	pKd (MAGI1_1, Q96QZ7): below the threshold; pKd (LNX2_2, Q8N448): below the threshold; pKd (TJP2_1, Q9UDY2): below the threshold; pKd (NHERF3_4, Q5T2W1): below the threshold; pKd (Inadl_5, Q8NI35): below the threshold; pKd (DFNB31_2, Q9P202): below the threshold
below the threshold	below the threshold	below the threshold	4.19	3.52	below the threshold	below the threshold	below the threshold	below the threshold	4.23	below the threshold	4.36	below the threshold	below the threshold	below the threshold	below the threshold	below the threshold	below the threshold	5.17	3.84	PSVYSRSQYV [CLDN8, P56748]	pKd (MAGI1_1, Q96QZ7): below the threshold; pKd (LNX2_2, Q8N448): 4.66; pKd (TJP2_1, Q9UDY2): 4.87; pKd (NHERF3_4, Q5T2W1): 4.13; pKd (Inadl_5, Q8NI35): 4.31; pKd (DFNB31_2, Q9P202): below the threshold
below the threshold	below the threshold	below the threshold	below the threshold	4.41	below the threshold	below the threshold	3.76	below the threshold	below the threshold	below the threshold	3.51	3.76	below the threshold	below the threshold	below the threshold	below the threshold	4.36	4.43	below the threshold	GDSSRKEYFI [GYPC, P04921]	pKd (MAGI1_1, Q96QZ7): below the threshold; pKd (LNX2_2, Q8N448): below the threshold; pKd (TJP2_1, Q9UDY2): below the threshold; pKd (NHERF3_4, Q5T2W1): below the threshold; pKd (Inadl_5, Q8NI35): 5.16; pKd (DFNB31_2, Q9P202): below the threshold
below the threshold	below the threshold	below the threshold	below the threshold	below the threshold	below the threshold	below the threshold	below the threshold	below the threshold	below the threshold	below the threshold	below the threshold	below the threshold	below the threshold	below the threshold	below the threshold	below the threshold	below the threshold	below the threshold	below the threshold	GSQSQVETEA [FKBP4, Q02790]	pKd (MAGI1_1, Q96QZ7): below the threshold; pKd (LNX2_2, Q8N448): below the threshold; pKd (TJP2_1, Q9UDY2): below the threshold; pKd (NHERF3_4, Q5T2W1): 3.73; pKd (Inadl_5, Q8NI35): below the threshold; pKd (DFNB31_2, Q9P202): below the threshold
below the threshold	below the threshold	below the threshold	below the threshold	below the threshold	below the threshold	below the threshold	below the threshold	below the threshold	below the threshold	below the threshold	below the threshold	below the threshold	below the threshold	below the threshold	below the threshold	below the threshold	below the threshold	below the threshold	below the threshold	QLGSPTADLA [SIPA1, Q96FS4]	pKd (MAGI1_1, Q96QZ7): below the threshold; pKd (LNX2_2, Q8N448): below the threshold; pKd (TJP2_1, Q9UDY2): below the threshold; pKd (NHERF3_4, Q5T2W1): below the threshold; pKd (Inadl_5, Q8NI35): below the threshold; pKd (DFNB31_2, Q9P202): below the threshold

Reference: article PMC9482650, “Quantitative fragmentomics allow affinity mapping of interactomes” (Nature Communications, 2022)
